Changes are numbered by the printed parent chain. Numbers in names are those of the source.
B1: feline IgG1a mutant ID No. 253: S428M, S434L (antibody, part only; not given: Variable domains, not shown: another chain or arm of the molecule)
constant: ASTTAPSVFPLAPSCGTTSGATVALACLVLGYFPEPVTVSWNSGALTSGVHTFPAVLQASGLYSLSSMVTVPSSRWLSDTFTCNVAHPPSNTKVDKTVRKTDHPPGPKPCDCPKCPPPEMLGGPSIFIFPPKPKDTLSISRTPEVTCLVVDLGPDDSDVQITWFVDNTQVYTAKTSPREEQFNSTYRVVSVLPILHQDWLKGKEFKCKVNSKSLPSPIERTISKAKGQPHEPQVYVLPPAQEELSRNKVSVTCLIKSFHPPDIAVEWEITGQPEPENNYRTTPPQLDSDGTYFVYSKLSVDRSHWQRGNTYTCSVMHEALHLHHTQKSLTQSPGK
B2: feline IgG1a mutant ID No. 264: D312P, L314K, S434Y (antibody, part only; not given: Variable domains, not shown: another chain or arm of the molecule)
constant: B1 constant with D198P, L200K, M316S, L322Y
B3: feline IgG1a mutant ID No. 255: S428M, S434P (antibody, part only; not given: Variable domains, not shown: another chain or arm of the molecule)
constant: B1 constant with L322P
B4: feline IgG1a A378K (antibody, part only; not given: Variable domains, not shown: another chain or arm of the molecule)
constant: B1 constant with A264K, M316S, L322S
B5: feline IgG1a A431V (antibody, part only; not given: Variable domains, not shown: another chain or arm of the molecule)
constant: B1 constant with M316S, A319V, L322S
B6: feline IgG1a P247I (antibody, part only; not given: Variable domains, not shown: another chain or arm of the molecule)
constant: B1 constant with P133I, M316S, L322S
B7: feline IgG1a mutant ID No. 302: A431K, S434P (antibody, part only; not given: Variable domains, not shown: another chain or arm of the molecule)
constant: B1 constant with M316S, A319K, L322P
B8: feline IgG1a T250V (antibody, part only; not given: Variable domains, not shown: another chain or arm of the molecule)
constant: B1 constant with T136V, M316S, L322S
B9: feline IgG1a T437R (antibody, part only; not given: variable domains and light chain, not shown: another chain or arm of the molecule)
constant: B1 constant with M316S, L322S, T325R
B10: feline IgG1a A378E (antibody, part only; not given: Variable domains, not shown: another chain or arm of the molecule)
constant: B1 constant with A264E, M316S, L322S
B11: feline IgG1a A378C (antibody, part only; not given: Variable domains, not shown: another chain or arm of the molecule)
constant: B1 constant with A264C, M316S, L322S
B12: feline IgG1a mutant ID No. 286: S252Y, S428Y, D312P, L314K (antibody, part only; not given: Variable domains, not shown: another chain or arm of the molecule)
constant: B1 constant with S138Y, D198P, L200K, M316Y, L322S
B13: feline IgG1a Y285A (antibody, part only; not given: Variable domains, not shown: another chain or arm of the molecule)
constant: B1 constant with Y171A, M316S, L322S
B14: feline IgG1a D249A (antibody, part only; not given: Variable domains, not shown: another chain or arm of the molecule)
constant: B1 constant with D135A, M316S, L322S
B15: feline IgG1a H436G (antibody, part only; not given: Variable domains, not shown: another chain or arm of the molecule)
constant: B1 constant with M316S, L322S, H324G
B16: feline IgG1a T250E (antibody, part only; not given: Variable domains, not shown: another chain or arm of the molecule)
constant: B1 constant with T136E, M316S, L322S
B17: feline IgG1a S434C (antibody, part only; not given: Variable domains, not shown: another chain or arm of the molecule)
constant: B1 constant with M316S, L322C
B18: feline IgG1a mutant ID No. 298: S428Y, Q311W, D312P, L314K (antibody, part only; not given: Variable domains, not shown: another chain or arm of the molecule)
constant: B1 constant with Q197W, D198P, L200K, M316Y, L322S
B19: feline IgG1a H436K (antibody, part only; not given: Variable domains, not shown: another chain or arm of the molecule)
constant: B1 constant with M316S, L322S, H324K
B20: feline IgG1a A378D (antibody, part only; not given: Variable domains, not shown: another chain or arm of the molecule)
constant: B1 constant with A264D, M316S, L322S
B21: feline IgG1a P247L (antibody, part only; not given: Variable domains, not shown: another chain or arm of the molecule)
constant: B1 constant with P133L, M316S, L322S
B22: feline IgG1a A378I (antibody, part only; not given: Variable domains, not shown: another chain or arm of the molecule)
constant: B1 constant with A264I, M316S, L322S
B23: feline IgG1a L432S (antibody, part only; not given: Variable domains, not shown: another chain or arm of the molecule)
constant: B1 constant with M316S, L320S, L322S
B24: feline IgG1a Q311L (antibody, part only; not given: Variable domains, not shown: another chain or arm of the molecule)
constant: B1 constant with Q197L, M316S, L322S
B25: feline IgG1a H436M (antibody, part only; not given: Variable domains, not shown: another chain or arm of the molecule)
constant: B1 constant with M316S, L322S, H324M
B26: feline IgG1a S434D (antibody, part only; not given: Variable domains, not shown: another chain or arm of the molecule)
constant: B1 constant with M316S, L322D
B27: feline IgG1a T250S (antibody, part only; not given: Variable domains, not shown: another chain or arm of the molecule)
constant: B1 constant with T136S, M316S, L322S
B28: feline IgG1a T437A (antibody, part only; not given: Variable domains, not shown: another chain or arm of the molecule)
constant: B1 constant with M316S, L322S, T325A
B29: feline IgG1a A378P (antibody, part only; not given: Variable domains, not shown: another chain or arm of the molecule)
constant: B1 constant with A264P, M316S, L322S
B30: feline IgG1a D249E (antibody, part only; not given: Variable domains, not shown: another chain or arm of the molecule)
constant: B1 constant with D135E, M316S, L322S
B31: feline IgG1a T250I (antibody, part only; not given: Variable domains, not shown: another chain or arm of the molecule)
constant: B1 constant with T136I, M316S, L322S
B32: feline IgG1a D399T (antibody, part only; not given: Variable domains, not shown: another chain or arm of the molecule)
constant: B1 constant with D287T, M316S, L322S
B33: feline IgG1a A378G (antibody, part only; not given: Variable domains, not shown: another chain or arm of the molecule)
constant: B1 constant with A264G, M316S, L322S
B34: feline IgG1a A378H (antibody, part only; not given: Variable domains, not shown: another chain or arm of the molecule)
constant: B1 constant with A264H, M316S, L322S
B35: feline IgG1a E430I (antibody, part only; not given: Variable domains, not shown: another chain or arm of the molecule)
constant: B1 constant with M316S, E318I, L322S
B36: feline IgG1a P247V (antibody, part only; not given: Variable domains, not shown: another chain or arm of the molecule)
constant: B1 constant with P133V, M316S, L322S
B37: feline IgG1a mutant ID No. 265: Q311W, D312P, L314K, S434Y (antibody, part only; not given: Variable domains, not shown: another chain or arm of the molecule)
constant: B1 constant with Q197W, D198P, L200K, M316S, L322Y
B38: feline IgG1a S434A (antibody, part only; not given: Variable domains, not shown: another chain or arm of the molecule)
constant: B1 constant with M316S, L322A
B39: feline IgG1a A431R (antibody, part only; not given: Variable domains, not shown: another chain or arm of the molecule)
constant: B1 constant with M316S, A319R, L322S
B40: feline IgG1a A378F (antibody, part only; not given: Variable domains, not shown: another chain or arm of the molecule)
constant: B1 constant with A264F, M316S, L322S
B41: feline IgG1a T250Q (antibody, part only; not given: Variable domains, not shown: another chain or arm of the molecule)
constant: B1 constant with T136Q, M316S, L322S
B42: feline IgG1a A378N (antibody, part only; not given: variable domains and light chain, not shown: another chain or arm of the molecule)
constant: B1 constant with A264N, M316S, L322S
B43: feline IgG1a A431Q (antibody, part only; not given: Variable domains, not shown: another chain or arm of the molecule)
constant: B1 constant with M316S, A319Q, L322S
B44: feline IgG1a H436R (antibody, part only; not given: Variable domains, not shown: another chain or arm of the molecule)
constant: B1 constant with M316S, L322S, H324R
B45: feline IgG1a A378L (antibody, part only; not given: Variable domains, not shown: another chain or arm of the molecule)
constant: B1 constant with A264L, M316S, L322S
B46: feline IgG1a mutant ID No. 284: S252Y, Q311W, D312P, S434Y (antibody, part only; not given: Variable domains, not shown: another chain or arm of the molecule)
constant: B1 constant with S138Y, Q197W, D198P, M316S, L322Y
B47: feline IgG1a mutant ID No. 275: S252R, S434R (antibody, part only; not given: Variable domains, not shown: another chain or arm of the molecule)
constant: B1 constant with S138R, M316S, L322R
B48: feline IgG1a E430Q (antibody, part only; not given: Variable domains, not shown: another chain or arm of the molecule)
constant: B1 constant with M316S, E318Q, L322S
B49: feline IgG1a S434E (antibody, part only; not given: Variable domains, not shown: another chain or arm of the molecule)
constant: B1 constant with M316S, L322E
B50: feline IgG1a D249S (antibody, part only; not given: Variable domains, not shown: another chain or arm of the molecule)
constant: B1 constant with D135S, M316S, L322S
B51: feline IgG1a A378M (antibody, part only; not given: Variable domains, not shown: another chain or arm of the molecule)
constant: B1 constant with A264M, M316S, L322S
B52: feline IgG1a D401R (antibody, part only; not given: Variable domains, not shown: another chain or arm of the molecule)
constant: B1 constant with D289R, M316S, L322S

How the values were obtained:
[1] = target: feline FcRn complex (FcRn-α subunit and β-microglobulin) (feline); experiment: SPR (Biacore), FcRn on SA chip, pH 6
[2] = target: feline FcRn complex (FcRn-α subunit and β-microglobulin), biotin labeled (feline); experiment: SPR, pH 6

Molecule | Kd [1] | Kd [2]
feline IgG1a mutant ID No. 259: S428L (antibody) | 24.5 nM | 
feline IgG1a mutant ID No. 262: S428L (antibody) | 25.4 nM | 
feline IgG1a mutant ID No. 263: S252Y, S254T, T256E (antibody) | 14 nM | 
B1 | 8 nM | 
B2 | 71.7 nM | 
B3 | 7.53 nM | 
B4 |  | 104 nM
B5 |  | 7.08 nM
B6 |  | 4.51 nM
B7 | 2.17 nM | 
B8 |  | 6.87 nM
B9 |  | 6.85 nM
B10 |  | 63.6 nM
B11 |  | 77.3 nM
B12 | 27 nM | 
B13 |  | 8.01 nM
B14 |  | 5.41 nM
B15 |  | 10.9 nM
B16 |  | 6.07 nM
B17 |  | 11.8 nM
B18 | 25.3 nM | 
B19 |  | 6.91 nM
B20 |  | 100 nM
B21 |  | 4.72 nM
B22 |  | 58.3 nM
B23 |  | 6.58 nM
B24 |  | 6.38 nM
B25 |  | 8.25 nM

Molecule | Kd [1] | Kd [2]
B26 |  | 5.66 nM
B27 |  | 4.94 nM
B28 |  | 8.79 nM
B29 |  | 68.4 nM
B30 |  | 5.84 nM
B31 |  | 4.66 nM
B32 |  | 6.75 nM
B33 |  | 88.3 nM
B34 |  | 49.3 nM
B35 |  | 5.89 nM
B36 |  | 5.21 nM
B37 | 7.95 nM | 
B38 |  | 4.49 nM
B39 |  | 6.73 nM
B40 |  | 74.8 nM
B41 |  | 4.35 nM
B42 |  | 28.6 nM
B43 |  | 6.64 nM
B44 |  | 5.69 nM
B45 |  | 34.7 nM
B46 | 7.27 nM | 
B47 | 78.6 nM | 
B48 |  | 6.58 nM
B49 |  | 3.35 nM
B50 |  | 5.24 nM
B51 |  | 26.6 nM
B52 |  | 4.77 nM

Source: patent US20240400708A1
